Consider 41 molecules from publication PMC314469, “Protein Interaction Networks by Proteome Peptide Scanning” (PLoS Biology, 2004).

Assay in all cases: SPOT array
The target in test [1] is Sho1 SH3 (SHO1_YEAST), P40073.
In test [2] the target is T1, Yfr024 SH3 (LSB3_YEAST), P43603.
T1 chain: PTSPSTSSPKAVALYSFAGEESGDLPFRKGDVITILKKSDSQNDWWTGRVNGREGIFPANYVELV

The target of test [3] is T2, Rvs167 SH3 (RV167_YEAST), P39743.
T2 chain: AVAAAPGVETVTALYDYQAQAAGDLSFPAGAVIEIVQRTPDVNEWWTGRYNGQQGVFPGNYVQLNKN

Test [4] has as its target T3, Yhr016c SH3 (YSC84_YEAST), P32793.
T3 chain: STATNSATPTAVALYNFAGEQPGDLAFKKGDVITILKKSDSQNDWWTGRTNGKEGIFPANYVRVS

The target of test [5] is T4, Boi1 SH3 (BOI1_YEAST), P38041.
T4 chain: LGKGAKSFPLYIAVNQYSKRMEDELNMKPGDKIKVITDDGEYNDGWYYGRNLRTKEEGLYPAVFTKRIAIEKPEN

Test [6] deals with T5, Boi2 SH3 (BOI2_YEAST), P39969.
T5 chain: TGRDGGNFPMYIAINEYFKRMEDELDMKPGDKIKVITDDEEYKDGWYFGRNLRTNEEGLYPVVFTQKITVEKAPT

The target in test [7] is T6, Myo5 SH3 (MYO5_YEAST), Q04439.
T6 chain: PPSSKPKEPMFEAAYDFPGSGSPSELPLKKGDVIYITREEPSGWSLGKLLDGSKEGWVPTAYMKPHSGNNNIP

The target in test [8] is T7, Abp1 SH3 (ABP1_YEAST), P15891.
T7 chain: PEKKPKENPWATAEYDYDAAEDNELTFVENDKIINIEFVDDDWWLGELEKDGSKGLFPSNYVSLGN

Sho1 SH3 (SHO1_YEAST), P40073, sequence (P40073 295-366): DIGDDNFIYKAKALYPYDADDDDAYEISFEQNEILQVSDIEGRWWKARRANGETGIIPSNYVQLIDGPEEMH

PIMPTLPPRPYITI [537-550 Hypothetical ORF] yielded a normalised SPOT signal, Boehringer light units (BLU); mean over the file's lines of this peptide in test [1] of 228.
On to PFIPKFPSRESVES, for which the normalised SPOT signal, Boehringer light units (BLU); mean over the file's lines of this peptide in test [1] was 163.
Still for that read-out and setting: the result for PKDPSSPQRDEILT [27-40 Hypothetical ORF] reads 130; that for NYIPPDPPKDIQLN [239-252 Hypothetical ORF], 38.1.
NKVPTNPKKFKKAP [326-339 " involved in silencing at telomeres, HML, and HMR"]: the normalised SPOT signal, Boehringer light units (BLU); mean over the file's lines of this peptide in test [1] came out at 291.
The molecule QGEPLDPKRPSTAS [141-154 glucosidase I] yielded a normalised SPOT signal, Boehringer light units (BLU); mean over the file's lines of this peptide in test [1] of 124.
The same measure, in the same setting: the result for NLKPERPSKVSFEM [548-561 " Non-membrane-embedded, PEST sequence-containing protein"] reads 339; that for NSPPVYPKRIRHFE [22-35 Hypothetical ORF], 177.
LVGMRSFPLYPSGL [YDL068W 45-58]: the normalised SPOT signal, Boehringer light units (BLU); mean over the file's lines of this peptide came out at 1940 in test [2]; 387 in test [3]; 330 in test [4]; 512 in test [5]; 325 in test [6]; 386 in test [7].
As to NMVPLNPNRIIPDE [189-202 Product of gene unknown], in test [1], the normalised SPOT signal, Boehringer light units (BLU); mean over the file's lines of this peptide was found to be 130.
The same measure, in the same setting: the figure for QGQPLPPPRGQVIL [287-300 Hypothetical ORF] is 159; for PVGPKVPAKEPSPK [874-887 Hypothetical ORF] it is 5820; for NSLPSSPKKQPARN [173-186 Hypothetical ORF] it is 198.
The same measure, in the same setting: the result for PLIPDNPGRLLSSK [311-324 Hypothetical ORF] reads 83.2.
Same read-out and setting: the figure for NKIPPKPRKVLQLL [93-106 Ribosomal protein L7A (L6A) (rp11) (YL8)] is 152.
For the molecule ILTSLPVPPPPVRP [YDL140C 235-248], the normalised SPOT signal, Boehringer light units (BLU); mean over the file's lines of this peptide worked out at 208 in test [8] and 617 in test [7].
PVYPSLPERSKVIL [44-57 telomere binding protein] displayed a normalised SPOT signal, Boehringer light units (BLU); mean over the file's lines of this peptide in test [1] of 210.
The same measure, in the same setting: the figure for NVDPASPWRHELLS [76-89 Hypothetical ORF] is 102; for PLQPRPPVKPLSKQ [87-100 35 kDa mitochondrial ribosomal small subunit protein] it is 85.4.
Still for that read-out and setting: the result for NIQPDLPPRKIMIP [90-103 Hypothetical ORF] reads 197; that for PNEPGAPSRLSFEN [285-298 ubiquitin carboxyl-terminal hydrolase], 85.1.
Take KLAILTSPFEPPKP [YJR064W 268-281]: the normalised SPOT signal, Boehringer light units (BLU); mean over the file's lines of this peptide in test [8] amounted to 40.4; in test [7] it was 173.
In test [1], NNNPVPPQKINQPP [198-211 Hypothetical ORF] had a normalised SPOT signal, Boehringer light units (BLU); mean over the file's lines of this peptide of 190.
Take PPEPATPSKKSLTT [169-182 origin recognition complex subunit 2]: the normalised SPOT signal, Boehringer light units (BLU); mean over the file's lines of this peptide in test [1] is 46.
Take WETWLYKPGMPPRP [YNL045W 490-503]: the figures for the normalised SPOT signal, Boehringer light units (BLU); mean over the file's lines of this peptide in test [8] and in test [7] were 310 and 255, respectively.
Take PLPPIPPTKSKTSP [535-548 serine/threonine protein kinase]: the normalised SPOT signal, Boehringer light units (BLU); mean over the file's lines of this peptide in test [1] was found to be 900.
In test [1], PFLPVLPQKPGGVR [35-48 succinate dehydrogenase membrane anchor subunit] came in with a normalised SPOT signal, Boehringer light units (BLU); mean over the file's lines of this peptide of 1380.
On the same count and under the same terms, the figure for PSNPALPKKLLNVP [345-358 negative regulator of early meiotic genes] is 178.
TELNLSSPNVPGKP [YKL216W 127-140]: the figures for the normalised SPOT signal, Boehringer light units (BLU); mean over the file's lines of this peptide in test [8] and in test [7] were 166 and 228, respectively.
NVQPRKPSRVHSRN [634-647 Hypothetical ORF] had a normalised SPOT signal, Boehringer light units (BLU); mean over the file's lines of this peptide in test [1] of 82.5.
Same read-out and setting: the result for NIQPNIPLRSYRYL [782-795 Hypothetical ORF] reads 117; that for NLDPNPPVRGENLT [61-74 Hypothetical ORF], 206.
Still for that read-out and setting: the figure for QEKPLTPLKYTKLI [160-173 subunit of the chromatin remodeling Snf/Swi complex] is 143; for PNSPTPPLKSKVSR [1337-1350 transcriptional regulator] it is 144; for QDSPDMPEKESVYV it is 118.
Still for that read-out and setting: the figure for QGYPRQPQRPQRYH [27-40 "heat shock protein similar to HSP26, involved in cytoskeleton assembly"] is 195; for PPPPPPPSRKSGTP [477-490 Hypothetical ORF] it is 261.
Consider RERPLEPPRKPMAS [YDR448W 142-155], for which the normalised SPOT signal, Boehringer light units (BLU); mean over the file's lines of this peptide worked out at 13500 in test [2]; 599 in test [3]; 1830 in test [4]; 256 in test [5]; 41.1 in test [6]; 967 in test [7].
In test [1], PPVPKAPSRRSSSL [943-956 negative regulator of early meiotic gene expression] had a normalised SPOT signal, Boehringer light units (BLU); mean over the file's lines of this peptide of 144.
In the case of PNYPDSPPKVTFIS [66-79 Similar to ubiquitin conjugating protein family], in test [1], the normalised SPOT signal, Boehringer light units (BLU); mean over the file's lines of this peptide was 187.
With QGLPASPSRAALRY [55-68 chitin synthase 2], the normalised SPOT signal, Boehringer light units (BLU); mean over the file's lines of this peptide in test [1] stood at 140.
